{"source": "paper PMC12557607", "about": "“The mitochondrial disulphide relay substrate FAM136A safeguards IMS proteostasis and cellular fitness” (Redox Biology, 2025)", "proteins": {"B1": {"name": "FAM136A (natural protein)", "chain": "not shown", "notes": "FAM136A, endogenous in HEK293 cells; soluble protein of the mitochondrial intermembrane space; also called endogenous FAM136A; source: endogenous, HEK293 lysate"}}, "molecular_target": "the molecule itself", "experiment": "SEC; cleared native HEK293 lysate (100 mM sodium phosphate pH 8.0, 100 mM NaCl, 1 % Triton X-100) on HiLoad 16/600 Superdex 200; fractions blotted for endogenous FAM136A"}
{"protein": "B1", "values": [{"measurement": "stoichiometry N", "value": "~2"}]}
